Assay results from article PMC6267192.

Target: TLR2 (human (endogenous in BEAS-2B)) (UniProt O60603)
Sequence of UniProt O60603 (O60603 21-784): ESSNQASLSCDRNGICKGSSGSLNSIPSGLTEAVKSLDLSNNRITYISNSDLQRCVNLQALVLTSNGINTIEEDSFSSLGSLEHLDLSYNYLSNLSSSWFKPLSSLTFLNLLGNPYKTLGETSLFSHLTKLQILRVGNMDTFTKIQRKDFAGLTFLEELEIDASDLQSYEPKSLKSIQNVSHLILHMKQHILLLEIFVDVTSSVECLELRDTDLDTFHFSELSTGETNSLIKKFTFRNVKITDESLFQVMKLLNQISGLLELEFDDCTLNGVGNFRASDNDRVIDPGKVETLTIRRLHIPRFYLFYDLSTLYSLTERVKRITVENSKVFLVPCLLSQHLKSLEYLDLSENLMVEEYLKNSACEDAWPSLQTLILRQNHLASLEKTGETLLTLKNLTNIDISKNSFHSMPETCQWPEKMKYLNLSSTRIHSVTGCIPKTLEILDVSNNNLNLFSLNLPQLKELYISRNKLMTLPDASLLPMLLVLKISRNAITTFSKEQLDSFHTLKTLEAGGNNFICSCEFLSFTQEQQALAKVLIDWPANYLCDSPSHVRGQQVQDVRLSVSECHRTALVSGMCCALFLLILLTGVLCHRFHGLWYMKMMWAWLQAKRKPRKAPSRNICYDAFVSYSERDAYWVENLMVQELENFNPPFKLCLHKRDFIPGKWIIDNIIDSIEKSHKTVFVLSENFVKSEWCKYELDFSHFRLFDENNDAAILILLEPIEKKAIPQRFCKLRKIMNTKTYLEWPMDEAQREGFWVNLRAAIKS

Substance	IL-8 release from BEAS-2B cells, allergen at 25 µg/mL, 24 hours
recombinant Der p 2 variant 2.0110 (from UniProt P49278 18-146) (natural protein)	310 pg/mL
Der p 2.0110 S47W (natural protein)	157 pg/mL
